Experimental data taken from article PMC6557205, “Functional interplay between YY1 and CARM1 promotes oral carcinogenesis”.

Target: His-YY1 full length (UniProt P25490 1-414)
Test: EMSA; unlabelled probe competes; anti-His supershift; EMSA buffer 10% glycerol, 75 mM KCl, 10 mM HEPES (pH not stated), 5 mM MgCl2; 30 C, 30 min (Fig 7F: 15 min methylation + 15 min binding); 5% native PAGE in 0.5X TBE at 4 C
Conditions: protein: recombinant; tags: His (pET28b); label: 32P 5' end label on one strand; blunt

Chain of His-YY1 full length (P25490 whole entry): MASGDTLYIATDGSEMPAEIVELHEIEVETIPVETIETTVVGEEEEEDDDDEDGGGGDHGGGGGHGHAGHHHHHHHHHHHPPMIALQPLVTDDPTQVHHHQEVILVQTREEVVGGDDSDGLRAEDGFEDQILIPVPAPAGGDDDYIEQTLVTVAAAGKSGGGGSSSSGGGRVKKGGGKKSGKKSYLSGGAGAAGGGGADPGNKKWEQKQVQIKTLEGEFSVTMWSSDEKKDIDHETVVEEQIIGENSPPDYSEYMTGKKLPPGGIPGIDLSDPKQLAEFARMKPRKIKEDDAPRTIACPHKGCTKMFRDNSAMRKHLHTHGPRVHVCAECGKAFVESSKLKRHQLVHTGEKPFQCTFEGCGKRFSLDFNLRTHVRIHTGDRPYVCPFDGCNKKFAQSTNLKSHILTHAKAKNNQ

B1: CARM1proYY1_BS1 (dsDNA)
DNA 1: GGGACCTCTGGATCCCATGGTTGGATGGCTGGGGGGTGGA
DNA 2: TCCACCCCCCAGCCATCCAACCATGGGATCCAGAGGTCCC
  binding result: binds
